According to patent publication US20080072349:
Where a chain is given by its changes, count along the chain named.

B1: Rubisco Activase derived polypeptide 183H12 (protein)
chain: MVKEDKQTDGDRWRGLAYDTSDDQQDITRGKGMVDSVFQAPMGTGTHHAVLSSYEYVSQGLRQYNLDNMMDGFYIAPAFMDKLVVHITKNFLTLPNIKVPLILGIWGGKGQGKSFQCELVMAKMGINPIMMSAGELESGNAGEPAKLIRQRYREAADLIKKGKMCCLFINDLDAGAGRMGGTTQYTVNNQMVNATLMNIADNPTNVQLPGMYNKEENARVPIICTGNDFSTLYAPLIRDGRMEKFYWAPTREDRIGVCKGIFRTDKIKDEDIVRLVDQFPGQSIDFFGALRARVYDDEVRKFVESLGVEKIGKRLVNSREGPPVFEQPEMTYEKLMEYGNMLVMEQENVKRVQLAETYLSQAALGDANADAIGRGTFYGKTEEKEPSKLE
B2: Rubisco Activase derived polypeptide 184B2 (protein)
chain: B1 chain with R274T, K310N
B3: Rubisco Activase derived polypeptide 079H6 (protein)
chain: B1 chain with M42T, M131I, R274T, R293K
B4: Rubisco Activase derived polypeptide 214A4 (protein)
chain: B1 chain with M42T
B5: wild type Rubisco Activase (Arabidopsis, short form RCA1) (protein)
chain: B1 chain with R274T
B6: Rubisco Activase derived polypeptide 382D8 (protein)
chain: B1 chain with M131V, V257I, R274T, K310N
B7: Rubisco Activase derived polypeptide 383A12 (protein)
chain: B1 chain with F168L, V257I, K310N
B8: Rubisco Activase derived polypeptide 301C7 (protein)
chain: B1 chain with F168L, V257I, R274T, K310N
B9: Rubisco Activase derived polypeptide 301H3 (protein)
chain: B1 chain with V257I, K310N
B10: Rubisco Activase derived polypeptide 126H4 (protein)
chain: B1 chain with M130R, R274T
B11: Rubisco Activase derived polypeptide 182B11 (protein)
chain: B1 chain with M131I, R274T

Target: purified deactivated Arabidopsis Rubisco (Ribulose-1,5-bisphosphate carboxylase/oxygenase), O03042

Question: Which Activation of deactivated Rubisco assay, 25° C., relative activity (%) does the source give for B1 here?
Answer: Its Activation of deactivated Rubisco assay, 25° C., relative activity (%) is 109%.

Question: And the Activity (3rd tier) 25° C. (µmol CO2 min^-1 mg^-1)?
Answer: The Activity (3rd tier) 25° C. (µmol CO2 min^-1 mg^-1) was 1.05.

Question: And the Activity (3rd tier) 40° C. (µmol CO2 min^-1 mg^-1)?
Answer: The Activity (3rd tier) 40° C. (µmol CO2 min^-1 mg^-1) was 0.857.

Question: What about the Rubisco activation under catalytic conditions assay, 25° C., relative activity (%) of the same protein?
Answer: The Rubisco activation under catalytic conditions assay, 25° C., relative activity (%) was 118%.

Question: And the “specific activity, Rubisco activation under catalytic conditions” value?
Answer: The value was “The protein displaying the highest specific activity at either 25 °C or 40 °C was the best variant isolated in the first round, 183H12”.

Question: Which results are given for B2?
Answer: Activity (3rd tier) 25° C. (µmol CO2 min^-1 mg^-1): 1.05; Activity (3rd tier) 40° C. (µmol CO2 min^-1 mg^-1): 0.889

Question: For B3, which Activation of deactivated Rubisco assay, 25° C., relative activity (%) is on record?
Answer: Its Activation of deactivated Rubisco assay, 25° C., relative activity (%) is 111%.

Question: And the Activity (3rd tier) 25° C. (µmol CO2 min^-1 mg^-1)?
Answer: Its Activity (3rd tier) 25° C. (µmol CO2 min^-1 mg^-1) is 1.06.

Question: What about the Activity (3rd tier) 40° C. (µmol CO2 min^-1 mg^-1) of the same protein?
Answer: The Activity (3rd tier) 40° C. (µmol CO2 min^-1 mg^-1) was 0.94.

Question: What about the Rubisco activation under catalytic conditions assay, 25° C., relative activity (%) of the same protein?
Answer: Its Rubisco activation under catalytic conditions assay, 25° C., relative activity (%) is 105%.

Question: With B4 as the protein, how does the Activation of deactivated Rubisco assay, 25° C., relative activity (%) read?
Answer: The Activation of deactivated Rubisco assay, 25° C., relative activity (%) was 111%.

Question: What about the Activity (3rd tier) 25° C. (µmol CO2 min^-1 mg^-1) of the same protein?
Answer: Its Activity (3rd tier) 25° C. (µmol CO2 min^-1 mg^-1) is 1.07.

Question: And the Activity (3rd tier) 40° C. (µmol CO2 min^-1 mg^-1)?
Answer: The Activity (3rd tier) 40° C. (µmol CO2 min^-1 mg^-1) was 0.986.

Question: What about the Rubisco activation under catalytic conditions assay, 25° C., relative activity (%) of the same protein?
Answer: The Rubisco activation under catalytic conditions assay, 25° C., relative activity (%) was 101%.

Question: B5 was tested. Which Activation of deactivated Rubisco assay, 25° C., relative activity (%) did it give?
Answer: The Activation of deactivated Rubisco assay, 25° C., relative activity (%) was 100%.

Question: And the Activity (3rd tier) 25° C. (µmol CO2 min^-1 mg^-1)?
Answer: The Activity (3rd tier) 25° C. (µmol CO2 min^-1 mg^-1) was 0.96.

Question: What about the Activity (3rd tier) 40° C. (µmol CO2 min^-1 mg^-1) of the same protein?
Answer: The Activity (3rd tier) 40° C. (µmol CO2 min^-1 mg^-1) was 0.634.

Question: And the Rubisco activation under catalytic conditions assay, 25° C., relative activity (%)?
Answer: Its Rubisco activation under catalytic conditions assay, 25° C., relative activity (%) is 100%.

Question: Which results are given for B6?
Answer: Activation of deactivated Rubisco assay, 25° C., relative activity (%): 105%; Activity (3rd tier) 25° C. (µmol CO2 min^-1 mg^-1): 1.01; Activity (3rd tier) 40° C. (µmol CO2 min^-1 mg^-1): 0.91; Rubisco activation under catalytic conditions assay, 25° C., relative activity (%): 98%

Question: For B7, which Activation of deactivated Rubisco assay, 25° C., relative activity (%) is on record?
Answer: The Activation of deactivated Rubisco assay, 25° C., relative activity (%) was 93%.

Question: And the Activity (3rd tier) 25° C. (µmol CO2 min^-1 mg^-1)?
Answer: Its Activity (3rd tier) 25° C. (µmol CO2 min^-1 mg^-1) is 0.891.

Question: What about the Activity (3rd tier) 40° C. (µmol CO2 min^-1 mg^-1) of the same protein?
Answer: Its Activity (3rd tier) 40° C. (µmol CO2 min^-1 mg^-1) is 0.92.

Question: And the Rubisco activation under catalytic conditions assay, 25° C., relative activity (%)?
Answer: The Rubisco activation under catalytic conditions assay, 25° C., relative activity (%) was 96%.

Question: What does the source list for B8?
Answer: Activation of deactivated Rubisco assay, 25° C., relative activity (%): 94%; Activity (3rd tier) 25° C. (µmol CO2 min^-1 mg^-1): 0.905; Activity (3rd tier) 40° C. (µmol CO2 min^-1 mg^-1): 0.889; Rubisco activation under catalytic conditions assay, 25° C., relative activity (%): 96%

Question: B9 was tested. Which Activation of deactivated Rubisco assay, 25° C., relative activity (%) did it give?
Answer: The Activation of deactivated Rubisco assay, 25° C., relative activity (%) was 101%.

Question: And the Activity (3rd tier) 25° C. (µmol CO2 min^-1 mg^-1)?
Answer: Its Activity (3rd tier) 25° C. (µmol CO2 min^-1 mg^-1) is 0.971.

Question: What about the Activity (3rd tier) 40° C. (µmol CO2 min^-1 mg^-1) of the same protein?
Answer: The Activity (3rd tier) 40° C. (µmol CO2 min^-1 mg^-1) was 0.86.

Question: What about the Rubisco activation under catalytic conditions assay, 25° C., relative activity (%) of the same protein?
Answer: The Rubisco activation under catalytic conditions assay, 25° C., relative activity (%) was 92%.

Question: What does the source list for B10?
Answer: Activity (3rd tier) 25° C. (µmol CO2 min^-1 mg^-1): 0.616; Activity (3rd tier) 40° C. (µmol CO2 min^-1 mg^-1): 0.596

Question: What does the source list for B11?
Answer: Activity (3rd tier) 25° C. (µmol CO2 min^-1 mg^-1): 0.426; Activity (3rd tier) 40° C. (µmol CO2 min^-1 mg^-1): 0.359
